Test results taken from patent US20040170622A1, “Methods and compositions for modulating XBP-1 activity” (President and Fellows of Harvard College, priority 2002, published 2004).
Read-outs that look alike come from different tables or passages of the source.

How the values were obtained:
[1] = test system: UPR target genes; test: Genes induced by XBP-1s in MEF-tet-off-XBP-1s cells (gene array, Northern blot); type: cell-based; conditions: doxycycline removed for three days
Protocol: XBP-1s expression was induced by culturing the cells for three days in doxycycline free media or by treating with Tm for the indicated time. […] Total RNA was also prepared to measure the expression level of BiP, CHOP, ERdj4, p58^ipk and ATF6α mRNA. (B) Additional XBP-1 dependent target genes identified in gene profiling experiments (Table 2) confirmed by Northern analysis in both XBP-1s MEF-tet-off and XBP-1^−/− MEFs. Ethidium bromide staining of the gels before blotting are shown at the bottom.
293T and MEF cells derived from wild type and XBP-1^−/− embryos were cultured in DMEM supplemented with 10% fetal calf serum (Hyclone Laboratories). MEF-tet-off cells (Clontech) were maintained in the same media with the addition of 100 μg/ml G418 and 1 μg/ml doxycycline. XBP-1s inducible cells were obtained by transfecting MEF-tet-off cells with the TREhyg-XBP-1s plasmid and then selecting in the presence of 400 μg/ml hygromycin B. Several clones were tested for doxycycline-dependent XBP-1s expression, and one was selected for further experiments. MEF-dn-XBP cells were generated by transfecting MEF-tet-off cells with the TREhyg-dn-XBP plasmid. […] ATF6α and β knockdown MEF cells were generated by cotransfecting wild type MEF cells with U6-iATF6α and β and cmv-puromycin or transducing cells with retroviruses containing each RNAi vector.
Total RNA was isolated from MEF cells with TRIZOL reagent (Invitrogen, Carlsbad, Calif.). cDNA synthesis, hybridization and laser scanning of the array were carried out at the Gene Array Technology Center (Brigham and Women's Hospital, Boston, Mass.) with MG-U74A GeneChips which had 6,000 functionally characterized sequences and 6,000 ESTs from the UniGene database (Affymetrix, Santa Clara, Calif.) as recommended by Affymetrix. Data analysis was performed using Affymetrix GeneChip 3.1 software under default parameter setting.
To examine whether XBP-1 itself is sufficient to induce these UPR target genes, the tet-off system was used to establish a cell line in which the spliced form of XBP-1, XBP-1s, is placed downstream of a tetracycline dependent promoter. XBP-1s was induced by removing doxycycline in the culture medium for three days. […] To identify genes that were induced by XBP-1s, total RNAs were prepared from MEF-tet-off-XBP-1s cells cultured in the presence or absence of doxycycline and gene array analysis performed (Table 1). […] In addition, ˜23% of the total pool of analyzed UPR target genes were induced by XBP-1s, although the fold induction tended to be lower than upon Tm treatment. These UPR genes included Herp, BiP, Aremt, AW124049 EST and interferon beta. […] The expression of BiP, CHOP, ERdj4 and p58^ipk was confirmed by Northern blot analysis (FIG. 17A).

[2] = test system: XBP-1 and ATF6α; test: UPRE (5×ATF6GL3) reporter in MEF cells with dominant negative XBP-1; type: cell-based
Protocol: (A) The 5×ATF6GL3 reporter plasmid was cotransfected with either pCGNATF6α or XBP-u/s plasmids into MEF cells with or without the dominant negative XBP-1 expression plasmid. 100 ng DNA was used for each transfection except for pCDNA3.1, which was added to give 1 μg of DNA in total. Luciferase assays were performed as described in the legend to FIG. 18.(B) MEF and MEF-dn-XBP cells that stably express dominant negative XBP-1 protein were treated with 10 μg/ml Tm for the indicated time periods. Total RNAs were isolated and subjected to Northern blot analysis. The same blot was hybridized sequentially with BiP, CHOP, ERdj4, p58^ipk and ATF6α probes. Ethidium bromide staining of the gel before blotting is shown at the bottom as loading control.
To make 4×XBPGL3, two complementary oligonucleotides containing the XBP-1 binding site 5^f-CGCG(TGGATGACGTGTACA)4-3′ (SEQ ID NO: 12) and 5′-GATC(TGTACACGTCATCCA)4-3^f (SEQ ID NO: 13) were annealed and ligated to the—40-Luc plasmid (Lee et al. 2000. Biochem J. 350 Pt1:131-138) digested by Mlu I and Bgl II. The UPRE reporter was constructed by inserting an annealed oligonucleotide containing two UPRE motifs (Roy and Lee 1999 Nucleic Acids Res. 27:1437), 5′-cgcgtcaCCAATcggaggcctCCACGaccaCCAATcggaggcctCCACGac-3′, (SEQ ID NO: 14) to the 40-Luc plasmid between the Mlu I and Xho I sites (Lee et al. 2000. Biochem J. 350 Pt1:131-138). UPRE reporter (5×ATF6GL3), pCGNATF6 and pCGNAF6 (1-373) were previously described (Wang et al. 2000. J. Biol. Chem. 275:27013). The pCDNA3.1 ([…]) driven expression vectors for mouse XBP-1s and XBP-1u/s were described elsewhere (Iwakoshi et al. 2003. Nature Immunology 4:321). pCDNA-dn-XBP was constructed by removing the region downstream of the Eco RV site of XBP-1s cDNA in the pCDNA-XBP-1s plasmid. TREhyg-XBP-1s and TREhyg-dn-XBP were constructed by inserting the XBP-1s cDNA and DN-XBP, respectively, into TRE2 hyg (Clontech) between the Pvu II and Sal I sites. […]

Row | Molecule | ATF6α induction [1] | BiP induction [1] | CHOP induction [1] | ERdj4 and p58ipk expression [1] | share of analyzed UPR target genes induced [1] | transactivation of the UPRE reporter by ATF6α / function of ATF6 [2] | transactivation of the UPRE reporter by XBP-1s [2] | transactivation of the UPRE reporter by ATF6α / function of ATF6 ([2]; listed as dn-XBP-1)
1 | XBP-1s: vector encoding only the spliced form of murine XBP-1, a protein of 371 aa (protein) MVVVAAAPSAATAAPKVLLLSGQPASGGRALPLMVPGPRAAGSEASGTPQARKRQRLTHLSPEEKALRRKLKNRVAAQTARDRKKARMSELEQQVVDLEEENHKLQLENQLLREKTHGLVVENQELRTRLGMDTLDPDEVPEVEAKGSGVRLVAGSAESAAGAGPVVTSPEHLPMDSDTVASSDSESDILLGILDKLDPVMFFKCPSPESASLEELPEVYPEGPSSLPASLSLSVGTSSAKLEAINELIRFDHVYTKPLVLEIPSETESQTNVVVKIEEAPLSSSEEDHPEFIVSVKKEPLEDDFIPELGISNLLSSSHCLRPPSCLLDAHSDCGYEGSPSPFSDMSSPLGTDHSWEDTFANELFPQLISV | also induced by XBP-1s | only marginally induced | not significantly induced | sufficient to induce ERdj4 and p58^ipk expression | ~23% |  |  | 
2 | dn-XBP: dominant negative XBP-1 containing the N-terminal 188 aa, lacking transactivation domain, retaining leucine zipper (protein) MVVVAAAPSAATAAPKVLLLSGQPASGGRALPLMVPGPRAAGSEASGTPQARKRQRLTHLSPEEKALRRKLKNRVAAQTARDRKKARMSELEQQVVDLEEENHKLQLENQLLREKTHGLVVENQELRTRLGMDTLDPDEVPEVEAKGSGVRLVAGSAESAAGAGPVVTSPEHLPMDSDTVASSDSESD |  |  |  |  |  | inhibited the transactivation of the UPRE reporter by ATF6α | completely abolished transactivation of the UPRE reporter by XBP-1s | potently inhibited the function of ATF-6 through heterodimerization
